Test results taken from patent US7053177B1, “Random peptides that bind to gastro-intestinal tract (GIT) transport receptors and related methods” (Cytogen Corporation, priority 1997, dated 2006).
Square brackets hold non-standard residues; d marks the D form. Ends that are not written are not given here. Peptide text beside a SMILES is read from it. * marks the point of attachment. Dansyl = CN(C)c1cccc2c(S(=O)(=O)*)cccc12

Columns and labels:
[1] = Peptide stability in simulated intestinal fluid (SIF); type: in vitro ADME; conditions: rank of relative stability to SIF
Experimental: Peptide (3.25 mg) was dissolved in 3.25 ml of 10,000 fold diluted SIF solution at 37° C. Aliquots (0.7 ml) of the digestion solution were then withdrawn at <1 min, 1h, 3h, and 21h or 24h. The samples were quickly passed through a syringe filter (Millipore Millex-GV 0.22 μm, part# SLGV025LS, lot# H2BM95250) and 300 μL of the filtered solution was immediately injected onto a Hewlett-Packard HPLC system equipped with a C-8 column (Applied Biosystems column and guard column: column-p/n 0711-0023 Spheri-5 ODS 5 μm, 220×4.6 mm). The products were eluted at 1.5 ml/min using an acetonitrile-water gradient. The major fluorescent peaks were collected, lyopholized and identified by MS analysis.

[2] = tested on: P100 membrane fraction of Caco-2 cells; assay: Dansylated peptide ELISA: relative binding of PAX2 and HAX42 peptides to P100 fractions (ratio to ZElan021); conditions: PAX2 peptides, first column, ratio to ZElan021 = 1.00
Procedure, shortened: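 Plates coated overnight at 4 °C with Caco-2 P100 membrane fraction (normally 100 μg/ml, pH 9.6) and blocked with 2% Marvel/PBS were incubated with dansylated peptides. Binding was detected with anti-mouse λ-HRP and TMB, read at 650 nm, and expressed relative to ZElan021.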

[3] = tested on: P100 membrane fraction of Caco-2 cells; assay: Binding of dansylated peptides to P100 fractions (peptide/particle correlation)
Experimental: Caco-2 cell membrane (P100) and cytosolic (S100) fractions were prepared using a modification of the method described in Kinsella, B. T., O'Mahony, D. J. and G. A. FitzGerald, 1994, J. Biol. Chem. 269(47): 29914–29919. Confluent Caco-2 cell monolayers (grown in 75 cm^2 flasks for up to 1 week at 37° C. and 5% CO2) were washed twice in Dulbecco's PBS (DPBS) and the cells were harvested by centrifugation at 1000 rpm after treatment with 10 mM EDTA-DPBS. The cells were washed 3 times in DPBS and the final cell pellet was resuspended in 3 volumes of ice cold HED buffer (20 mM HEPES (pH 7.67), 1 mM EGTA, 0.5 mM dithiothreitol, 1 mM phenylmethylsulphonyl fluoride (PMSF)). The cells were allowed to swell for 5 min on ice prior to homogenization for 30 sec. The homogenates were centrifuged at 40,000 rpm for 45 min at 4° C. The supernatant (S100) was removed and the pellet (P100) was resuspended in HEDG buffer (20 mM HEPES (pH 7.67), 1 mM EGTA, 0.5 mM dithiothreitol, 100 mM NaCl, 10% glycerol, 1 mM PMSF). Protein concentrations were determined using the Bradford assay (Bradford, M. M., 1976, Anal. Biochem. 72: 248–254).
Binding of peptide and/or peptide-coated PLGA particles to membrane (P100) and cytosolic (S100) fractions was assessed by detection of the dansyl moiety incorporated in the peptide. Costar ninety six well ELISA plates were coated with S100 and P100 fractions (100 μg/ml in 0.05 M NaHCO3) overnight at 4° C. The plates were blocked with 0.5% bovine serum albumin in DPBS for 1 h at room temperature and washed 3 times in 1% BSA-DPBS. Peptide-coated particles or peptides were dispersed in the same buffer and added to the plates at concentrations in the range 0.0325–0.5 mg/well. […] The plates were incubated for 1 h at room temperature. The wells were washed 3 times in 1% BSA-DPBS and 100 μl of goat anti-mouse IgGλ:HRP antibody (Southern Biotechnology 1060-05; 1:10,000) was added per well. The plates were incubated for 1 h at room temperature. After washing 3 times in 1% BSA-DPBS 100 μl of TMB substrate (3,3′,5′,5-tetramethylbenzidine; Microwell Peroxidase Substrate System (Kirkegaard and Perry Laboratories 50-76-00)) was added and the optical density was measured at 650 nm at various time intervals.
Binding of dansylated peptides to P100 fractions was assessed to determine if peptide binding was predictive of peptide-coated particle binding.

BSA = BSA (Bos taurus, UniProt P02769); assay: Receptor ELISA of phage on BSA (background control protein); type: binding; conditions: Table 5; phage panned on HPT-1
Experimental: 96 well plates were coated overnight with GIT receptor, BSA and, optionally, IDE (insulin degrading enzyme, an irrelevant His-fusion protein)or hTF. The plates were blocked for one hour with 0.5% BSA-PBS. After clarification, the amplified phage were diluted 1:100 in 1% BSA plus 0.05% Tween 20 in PBS and added to the plates. Following incubation of the plates on a rotator for 1 to 2 hours, the plates were washed 5 times with 1% BSA plus 0.05% Tween 20 in PBS. Dilute anti-M13-HRP conjugate (anti-M13 antibody linked to horse radish peroxidase (HRP)) was added to all the wells and the plate was incubated for one hour on a rotator. After the plates were washed 5 times, as described above, TMB substrate was added to the wells. The plates were read at 650 nm absorbance.

[4] = tested on: rat gastro-intestinal tract (closed loop); assay: Transport of preselected phage libraries in rat closed loop, detected by oligonucleotide hybridization/autoradiography; conditions: HPT1 pool; in words; PAX2 used at 4x concentration
Experimental: Four preselected phage libraries, GI-D2H, GI-hSI, GI-HPT1 and GI-hPEPT1, were constructed by pooling phage previously selected by screening random phage display libraries D38 and DC43 using the HPT1, HPEPT1, D2H and hSI receptor or binding sites located in the GIT.
In particular, phages selected in vitro to each receptor or binding site located in the GIT were amplified in E. coli, PEG-precipitated, resuspended in TBS and the titer of each phage sample was determined by plaquing in E. coli as described above. […] Using the in situ loop model described above, 0.5 ml of preselected phage library solution was injected into the tied-off portion of the duodenum/jejunum. Blood was collected into heparinized tubes from the portal vein at 0, 15, 30, 45 and 60 minutes. A blood sample was taken from the systemic circulation at the end of the experiment. Similarly, the portion of the duodenum/jejunum used for phage injection was taken at the end of the experiment.
Thirty microliters of the collected portal blood (neat and 10^−2, 10^−1, 10^−6 dilutions) was added to 30 μl E. coli K91Kan cells (overnight culture) and incubated at 37° C. for 10 min. Subsequently, 3 ml of top agarose was added and the samples were plated for plaques. One hundred microliters of the collected portal blood was added to 100 μl of E. coli K91Kan. Five milliliters of LB medium was then added and the samples were incubated at 37° C. overnight in a rotating microbial incubator. The E. coli was removed by centrifugation and the amplified phage supernatant samples were either titered directly or were PEG-precipitated, resuspended in TBS and titered. Following titration of the amplified phage, samples containing phage from each set of animals were combined, adjusting the titer of each sample to the same titer, and were plated for plaques on LB agar lates (22 cm^2 square plates). Either 12,000 or 24,000 phage were lated for plaques.
Thirty microliters of the collected systemic blood (neat and 10^−2, 10^−1, 10^−6 dilutions) was added to E. coli K91Kan cells, incubated at 37° C. for 10 min. Three ml of top agarose was then added and the samples were plated for plaques. One hundred microliters of the collected systemic blood was added to 100 μl of E. coli K91Kan, incubated at 37° C. for 10 min. Five milliliters of LB medium was then added and the samples were incubated at 37° C. overnight in a rotating microbial incubator. The E. coli was removed by centrifugation and the amplified phage supernatant samples were either titered directly or were PEG-precipitated, resuspended in TBS and titered. Following titration of the amplified phage, samples containing phage from each set of animals were combined, adjusting the titer of each sample to the same titer, and were plated for plaques on LB agar plates (22 cm^2 square plates). Either 12,000 or 24,000 phage were plated for plaques.
The intestinal tissue portion used in each closed loop was excised. […] Alternatively, the tissue (in PBS supplemented with protease inhibitors) was homogenized in an Ultra Thorex homogenizer, washed 3 times in PBS containing protease inhibitors and resuspended in PBS containing protease inhibitors (Int-G samples). In each case, serial dilutions (neat and 10^−2, 10^−4, 10^−6 dilutions) of the tissue homogenate was titered in E. coli.
The phage amplified from the portal blood, systemic blood and intestinal tissue was plated for plaques. […] The filters were air-dried, and the DNA was cross-linked to the filter (UV crosslinking: 2 min, high setting). The filters were incubated in pre-hybridization buffer (6×SSC, 5× Denhardt's solution, 0.1% SDS, […] yeast tRNA) at 40° C.–45° C. for at least 60 min.
Synthetic oligonucleotides, (22-mers), complimentary to regions coding for the receptor or binding sites used to create the preselected phage library, were synthesized (see Table 14 below).

[5] = molecular target: bovine serum albumin (bovine) (UniProt P02769); assay: phage ELISA on coated BSA
[6] = molecular target: T1, recombinant D2H receptor domain (human D2H transporter, amino acid residues 387-685), His-tag fusion protein (human) (UniProt Q07837); assay: phage ELISA, OD on D2H over OD on BSA
T1 sequence: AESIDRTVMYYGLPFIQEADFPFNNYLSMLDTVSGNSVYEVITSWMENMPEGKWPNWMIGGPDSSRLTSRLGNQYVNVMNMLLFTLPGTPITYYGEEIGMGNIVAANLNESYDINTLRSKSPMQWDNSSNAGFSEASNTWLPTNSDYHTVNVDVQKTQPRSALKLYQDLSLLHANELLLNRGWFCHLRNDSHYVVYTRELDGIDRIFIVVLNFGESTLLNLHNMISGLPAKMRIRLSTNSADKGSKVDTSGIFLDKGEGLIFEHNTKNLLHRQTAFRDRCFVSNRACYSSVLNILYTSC

[7] = molecular target: T1, recombinant D2H receptor domain (human D2H transporter, amino acid residues 387-685), His-tag fusion protein (human); assay: phage ELISA on coated D2H

Sequence of bovine serum albumin (bovine) (P02769 25-607 limits assumed): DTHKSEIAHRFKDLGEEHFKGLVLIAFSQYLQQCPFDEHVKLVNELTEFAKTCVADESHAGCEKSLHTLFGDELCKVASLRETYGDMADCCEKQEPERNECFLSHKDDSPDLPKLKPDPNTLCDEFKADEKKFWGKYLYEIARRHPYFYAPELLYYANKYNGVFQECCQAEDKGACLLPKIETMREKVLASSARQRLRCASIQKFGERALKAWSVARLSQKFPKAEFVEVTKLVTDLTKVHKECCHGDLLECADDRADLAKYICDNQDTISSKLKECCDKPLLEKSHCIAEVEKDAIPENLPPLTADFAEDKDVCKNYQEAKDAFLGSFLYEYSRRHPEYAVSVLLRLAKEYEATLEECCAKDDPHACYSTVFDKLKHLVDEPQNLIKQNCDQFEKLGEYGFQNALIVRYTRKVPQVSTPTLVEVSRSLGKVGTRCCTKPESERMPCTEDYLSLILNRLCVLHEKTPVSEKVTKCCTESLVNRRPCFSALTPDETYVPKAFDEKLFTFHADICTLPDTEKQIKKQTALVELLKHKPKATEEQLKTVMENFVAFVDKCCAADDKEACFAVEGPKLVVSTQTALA
Sequence of BSA (P02769 25-607): as the sequence (P02769 25-607 limits assumed) above

Molecule: C[C@@H](O)[C@H](NC(=O)[C@@H](N)CCCCNS(=O)(=O)c1cccc2c(N(C)C)cccc12)C(=O)N[C@@H](CCCNC(=N)N)C(=O)N[C@@H](CCCCN)C(=O)N[C@@H](CO)C(=O)N[C@@H](CO)C(=O)N[C@@H](CCCNC(=N)N)C(=O)N[C@@H](CO)C(=O)N[C@@H](CC(N)=O)C(=O)N1CCC[C@H]1C(=O)N[C@@H](CCCNC(=N)N)C(=O)NCC(=O)N[C@@H](CCCNC(=N)N)C(=O)N[C@@H](CCCNC(=N)N)C(=O)N[C@@H](Cc1c[nH]cn1)C(=O)N1CCC[C@H]1C(=O)NCC(N)=O [ZElan031] (H-K(Dansyl)TRKSSRSNPRGRRHPG-NH2)
- Rel. Stab. [1]: 3

Molecule: C[C@@H](O)[C@H](NC(=O)[C@@H](N)CCCCNS(=O)(=O)c1cccc2c(N(C)C)cccc12)C(=O)N[C@H](CCCNC(=N)N)C(=O)N[C@@H](CCCCN)C(=O)N[C@@H](CO)C(=O)N[C@@H](CO)C(=O)N[C@H](CCCNC(=N)N)C(=O)N[C@@H](CO)C(=O)N[C@@H](CC(N)=O)C(=O)N1CCC[C@H]1C(=O)N[C@H](CCCNC(=N)N)C(=O)NCC(=O)N[C@H](CCCNC(=N)N)C(=O)N[C@H](CCCNC(=N)N)C(=O)N[C@@H](Cc1c[nH]cn1)C(=O)N1CCC[C@H]1C(=O)NCC(N)=O [ZElan053, H2N-K(dns)TrKSSrSNPrGrrHPG-CONH2] (H-K(Dansyl)T[dR]KSS[dR]SNP[dR]G[dR][dR]HPG-NH2)
- Rel. Stab. [1]: 1

Molecule: C[C@@H](O)[C@H](NC(=O)[C@@H](N)CCCCNS(=O)(=O)c1cccc2c(N(C)C)cccc12)C(=O)N[C@@H](CCCNC(=N)N)C(=O)N[C@@H](CCCCN)C(=O)N[C@@H](CO)C(=O)N[C@@H](CO)C(=O)N[C@H](CCCNC(=N)N)C(=O)N[C@@H](CO)C(=O)N[C@@H](CC(N)=O)C(=O)N1CCC[C@H]1C(=O)N[C@@H](CCCNC(=N)N)C(=O)NCC(=O)N[C@H](CCCNC(=N)N)C(=O)N[C@@H](CCCNC(=N)N)C(=O)N[C@@H](Cc1c[nH]cn1)C(=O)N1CCC[C@H]1C(=O)NCC(N)=O [ZElan054, H2N-K(dns)TRKSSrSNPRGrRHPG-CONH2] (H-K(Dansyl)TRKSS[dR]SNPRG[dR]RHPG-NH2)
- Rel. Stab. [1]: 2

Molecule: H-K(Dansyl)STPPSREAYSRPYSVDSDSDTNAKHSSHNRRLRTRSRPNG-NH2 [ZElan018]
- Binding value at 20 μg/ml ([2]; 20 μg/ml): −0.33
- Binding value at 50 μg/ml ([2]; 50 μg/ml): 0.95
- Binding of dansylated peptide to P100 fraction ([3]; repeat assay, compared with scrambled PAX2 control): indistinguishable from the scrambled PAX2 control

Molecule: SDHALGTNLRSDNAKEPGDYNCCGNGNSTGRKVFNRRRPSAIPT (not fully specified; cysteine pairing not given here) [HAX42]
- BSA (BSA): 0.071 OD
- Peptide/particle binding correlation ([3]; in words): correlated well
- Presence in the portal or systemic circulation [4]: found in the portal and systemic circulation

Molecule: SQGSKQCMQYRTGRLTVGSEYGCGMNPARHATPAYPARLLPRYR [phage DCX11]
- OD [5]: 0.071 OD 650 nm
- D2H/BSA [6]: 3
- OD [7]: 0.222 OD 650 nm

Molecule: RYSGLSPRDNGPACSQEATLEGCGAQRLMSTRRKGRNSRPGWTL [phage DCX42]
- OD [5]: 0.065 OD 650 nm
- D2H/BSA [6]: 2
- OD [7]: 0.158 OD 650 nm

Molecule: RYKHDIGCDAGVDKKSSSVRGGCGAHSSPPRAGRGPRGTMVSRL [phage DCX8]
- OD [5]: 0.063 OD 650 nm
- D2H/BSA [6]: 3
- OD [7]: 0.163 OD 650 nm
